The nanobody polyreactivity screen of Harvey et al. (2022)

Assay: yeast display, Sf9 membrane polyspecificity reagent, FACS + sequencing; frameworks hold sequencing errors
Summary of the method: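 Nanobodies came from a synthetic yeast display library in Saccharomyces cerevisiae BJ5465, induced with galactose for 36–48 hours and stained for 1 hour at 4 °C with 10% biotinylated, detergent-solubilized Sf9 membrane reagent. Cells were enriched on streptavidin microbeads and then FACS-sorted, with low and high (top ~1%) gates set on anti-HA fluorescence for expression and streptavidin fluorescence for reagent binding. Each polyreactivity label reflects the gate a clone came from. Genes were amplified by colony PCR, sequenced by MiSeq 2 × 250 and filtered by CDR length.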

Sequence	polyreactivity (PSR sort gate)
QVQLVESGGGLVQAGGSLRLSCAATGRIFLKYTMGWYRQAPGKERELVAAISRGRSTYYADSVKGRFTISRDNAMNTVYLQMNSLKPEDTAVYYFAATSYRRTGYYYWGQGTQVTVSS	high polyreactivity
QVQLVESGGGLVQAGGSLRLSCAATGRIFYGYTMGWYRQPPGKERELVAAINFNAGRTYYADSVKGRFTISRDNAKNTVYLQMNSLKPEDTAVYYCAAEGRFGRKYGYWGQGTQVTVSS	low polyreactivity
QVQLVESGGGLVQAGGSLRLSCAATGRTFLYNAMGWYRQAPGKERELVAAISFDDGSTYYADSVKGRFTISRDNAKNTVYLQMNSLKPEDPAVYYCAAEYLYVGDSQAYNQYEYWGQGTQVTVSS	low polyreactivity
QVQLVESGGGLVQAGGSLRLSCAATGRTFVSNAMGWYRQAPGKERELVAAISSSTGSTYYADSVKGRFTISRDNAKNTVYLQMNSLKPEDTAVYYCAAYLLGRSPYDYWGQGTQVTVSS	low polyreactivity
QVQLVESGGGLVQAGGSLRLSCAATGSIFNYYAMGWYRQAPGKERELVATISRGGRTNYADSVKGRFTISRDNAKNTVYLQMNRLKAEETAVYYCAADRYYTYNVYYFSSFVYWGHGTQVTVSS	high polyreactivity
QVQLVESGGGLVQAGGSLRLSCAATGSIFRYYAMGWYRQAPGKERELVAAISWSGGSTYYSDSVKGRFTISRDNAKNTVYLQMNSLKPEDTAVYYCNVKRYGGRSDYWGQGSQVTVSS	high polyreactivity
QVQLVESGGGLVQAGGSLRLSCAATGSIFYGNAMGWYRQAPGKERELVAAISWGAGSTYYADSVKGRFTISRDNAKNTVYLQMNSLKPEDTAVYYCNTLQITGWYDYWGQGTQVTVSS	high polyreactivity
QVQLVESGGGLVQAGGSLRLSCAATGSIFYVNAMGWYRQAPGKERELVAVNADSVKGRFTISRDNAKNTVYLQMNSLKPEDTAVYYCAAGVNSTTRIYDYWGQGTQVTVSS	low polyreactivity
QVQLVESGGGLVQAGGSLRLSCAATGSNFINYAMGWYRQAPGKERELVAAYADSVKGRFTISRDNAKNTVYLQMNSLKPEDTAVYYCNAVTGEWGQGTQVTVSS	low polyreactivity
QVQLVESGGGLVQAGGSLRLSCAATGSTFAHNSMGWYRQAPGKESQFVAAISARGGMTYYADSVKGRFTISRDYAKNTVYLQMNSLKPEDTAVYYCAAVFGDYWSSQWSYAYGYWGQGTQVTVSS	high polyreactivity
QVQLVESGGGLVQAGGSLRLSCAATGSTFAVYSMGWYRQAPGKELELVATIRRNGGSTYYADSVKGRFTISRDNAKNTVYLQMNSLQPEDTAVYYCAARSRKRWGYNYWGQGTQVTVSA	high polyreactivity
QVQLVESGGGLVQAGGSLRLSCAATGSTFDDNVMGWYRQAHGKVRELVAAITTSGGSTFYADSVKWRFTISRDNAKNTVYLQMNSLKPEDTAVYYCNAVYFGLWGYYARRSYNYWGQGTQVTVSS	low polyreactivity
QVQLVESGGGLVQAGGSLRLSCAATGSTFLRNAIGWYRQAPGTERELVATITNGGSTYYADSVKGRFTISRDNAKNTVYLQMNSLKPEDTAVYYCATLSSYWSWLRYGYGYWGQGTQVTVSS	low polyreactivity
QVQLVESGGGLVQAGGSLRLSCAATGTTFHYYAMGWYRQAPGKERELVASITRSGGRTYYADSVKGRFTISRDNAKNTVYLQMNSLKPEDTAVYYCAARSYRRTSYDYPSNPNYEYYYWGQGTQVTVSS	high polyreactivity
QVQLVESGGGLVQAGGSLRLSCAATVSIFDRNAMGWYRQAPGKERELVAAISSVGSTNYADSVKGRFTISRDNAKNTVYLQMNSLKPEDTADYYCAAENEFIPSLFDYWGQGTQVTVSS	low polyreactivity
QVQLVESGGGLVQAGGSLRLSCAATVSTIKTYATMGLYRQAPWTERELVAAITSGSSTNYADSVKGRFTISRDNAKNTVYLQMNSMKPEDTAVYYCAADDYYNWYLGEPGDYWGQGTQVTVSS	low polyreactivity

Sequence	polyreactivity (PSR sort gate)
QVQLVESGGGLVQAGGSLRLSCAAWSIFYLNAMGWNRQAPGKERELDAAISSAGSTYYADSVKGRFTISRDNAKNTFYLQMNSLKPEDTAVYYCAAYWYDSPGVTEIWYDYWGQGTQVTVSS	low polyreactivity
QVQLVESGGGLVQAGGSLRLSCAAYGFIFTRYAMGWSRQAPGKERELVAAISSSGGSTSYADSVKGRFTISRDNAKNTVYFQMNSLKPEDTAVYYCAARGYRLARYRSYDYWGQGTQVTVSS	high polyreactivity
QVQLVESGGGLVQAGGSLRLSCAAYGFTFKYYVMGWYRQAPGKERELVASISKRGGSTRYADSVKGRFTISRDNAKNTVYLQMNSLKPEDTAVYYCAAAFVRPPPYVGYSRFYYWGQGTQVTVSS	high polyreactivity
QVQLVESGGGLVQAGGSLRLSCAAYGFTFVDFVMGWSIQAPGKERELVAAITTSGTRTSYADSVKGRFTISRDNAKNTVYLQLNSLKPEDTAVYYCNADHKSIYPKYRGRFYYWGQGTQVTVSS	high polyreactivity
QVQLVESGGGLVQAGGSLRLSCAAYGIIFRRNAMGWYRQAPGKERELVAAISWSGGTTYYADSVKGRFTISRDNAKYTVYLQIISLKPEDTAVYYCAAGLISRPYGYDYWGQCTQVTVSS	high polyreactivity
QVQLVESGGGLVQAGGSLRLSCAAYGIIFWINSMGRYRPAPGKEREVVAAITSGGTTYYADSVKGRFTISRDNGKNTVYLQMNILKPEDTAVYYCAARVRGARDYYWGQGTQVTVSS	high polyreactivity
QVQLVESGGGLVQAGGSLRLSCAAYGIIFYLYVMGWYRQAPGKERELVAVISYSGDDTYYADSVKGRFTISRDNAKNTVYLQMNSLKPEDTAVYYCAADYYYVYSSFGHYYWGQGTQVTVSS	low polyreactivity
QVQLVESGGGLVQAGGSLRLSCAAYGLIFPVYAMGWYRQAPGKEREFVASIWRGGTTYYADSVKGRFTISRDNAKNTVYLQMNRLKPEDTAVYYCAARYYPRGLVFPFTKYDYWGQGTQVTVSS	high polyreactivity
QVQLVESGGGLVQAGGSLRLSCAAYGLTFLSNAMGWYRPAPGKEREFVAAITKSGGRTYYADSVKGRFTISRDNAKNTVYFQMNSLKPEDTSVYYCAASGTSPRSTWYNSWGQGTQVTVSS	high polyreactivity
QVQLVESGGGLVQAGGSLRLSCAAYGNAMGWYRQAPGKERELVASINRSGGRTYYADSVKGRFTISRDNAKNTVYLQMNSLKPEDTAVYYCAARPHYDSDYWGQGTQVTVSS	low polyreactivity
QVQLVESGGGLVQAGGSLRLSCAAYGNTFEHYAKGWYRQAPVKERELVAAISNSGGSTYYADSVKGRFTLSRDNAKNTVYLQMNSLKPEDTAVYYCNARGRASATVRLGRPDPFGDWGQGTQVTVSS	high polyreactivity
QVQLVESGGGLVQAGGSLRLSCAAYGRIFIGYTMGWYRQAPGNERELVAVISYRGGRTYYADSVKGRFTISRDNAKNTVYLQMNSLKPEDTAVYYCAAYRPGVISGFDYWGQGTQVTVSS	high polyreactivity
QVQLVESGGGLVQAGGSLRLSCAAYGRIFNDYTMGWYRQAPGKERELVADITNRDTSTSYADSVKGRFIISRDNANNTVYLQMYILKPDDTAVYYCNAQQVIVVYRPGDYWGQGTQVTVSS	low polyreactivity
QVQLVESGGGLVQAGGSLRLSCAAYGRIFSAYVMGWYRQAPGKERELVAAISSTGSTYYADSAKGRFTISRDNAKNTVYLQMNSLKPEDTAVYYCAKRFFQQGYYYWGQGTQVTVSS	low polyreactivity
QVQLVESGGGLVQAGGSLRLSCAAYGRIFTSYVMGWYRQAPGKERELVAGINSGRRTNYADSVKGRFTISRDNAKNTVYLQMNSLKPEDTAVYYCAKAGYWYKAHYYWGQGTQVTVSS	high polyreactivity
QVQLVESGGGLVQAGGSLRLSCAAYGRIFYRNVMGWYRQAPGKERELVAAITYRTGSTYYADSVKGRFTISRDNAKNTVYLQMNSLKPEDTAVYYCNVVPRNGQTWGYEYDYWGQGTQVTVSS	high polyreactivity
